Changes are numbered by the printed parent chain. Values joined by “and” are separate entries in the source; they are usually repeats but may differ in a detail not shown here. Equal entries are not always repeated. Each block holds one binder with its values, some of them ahead of it.
Tests used:
human CD20 antigen [1] = molecular target: T1, human CD20 antigen (human, UniProt P11836 1-297); experiment: Scatchard analysis on Raji cells (Example 3), average over the clones of the construct
T1 construct: whole, on cells; also called CD20 on Raji cells; CD20/CHO cells
T1 sequence (looked up): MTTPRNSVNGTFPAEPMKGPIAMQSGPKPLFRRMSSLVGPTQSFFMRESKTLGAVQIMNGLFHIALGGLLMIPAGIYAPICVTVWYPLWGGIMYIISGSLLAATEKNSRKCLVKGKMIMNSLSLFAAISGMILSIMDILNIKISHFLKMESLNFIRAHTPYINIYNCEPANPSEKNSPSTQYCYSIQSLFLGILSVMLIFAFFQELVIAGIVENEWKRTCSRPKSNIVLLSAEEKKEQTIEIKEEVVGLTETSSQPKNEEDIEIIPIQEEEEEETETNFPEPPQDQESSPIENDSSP
Experimental: (§1) The reaction solution was 1% BSA-PBS solution with a cell number of 5×10⁶ cells and was injected into a 1.5 ml tube to a final volume of 100 μl. Three samples for each test antibody were prepared and four tubes to which antibody was not added were prepared as samples for background calculations.
(§2) After the detecting step, an image was digitized using image analysis software Image Quant (Amersham Bioscience) and analyzed using Excel (Microsoft). Average values for the same test antibodies were calculated and the values for background calculation samples (when only reacting a cell with a FITC-labeled secondary antibody) were subtracted from the test antibody values. The background values derived for the FITC-labeled secondary antibody binding non-specifically to cells, the PBS solution and the plate are omitted. At the same time, a standard curve was prepared by measuring the amount of fluorescence of only FITC-labeled secondary antibodies at amounts of 0, 12.5, 25, 50, 75, 100, 125, and 150 ng per 100 μl. In this manner, the number of moles of secondary antibody binding to cells was calculated. Assuming that each primary antibody and the FITC-labeled secondary antibody react at a ratio of […], the amount of cell-bound primary antibody was calculated. Primary antibody in suspension was calculated by subtracting the bound amount from the added amount. Scatchard analysis was performed using these values in order to calculate a dissociation constant Kd.

human CD20 antigen [2] = molecular target: T1, human CD20 antigen; experiment: cell-based or functional assay
human CD20 antigen [3] = molecular target: T1, human CD20 antigen; experiment: cell-based or functional assay; remark: listed apart in the source
human CD20 antigen [4] = molecular target: T1, human CD20 antigen; experiment: Scatchard analysis on Raji cells, FITC anti human Fc secondary (Example 3)
Experimental: as §1, §2

human CD20 antigen [5] = molecular target: T1, human CD20 antigen; experiment: cell-based or functional assay; remark: listed apart in the source
human CD20 antigen [6] = molecular target: T1, human CD20 antigen; experiment: cell-based or functional assay; remark: listed apart in the source
human CD20 antigen [7] = molecular target: T1, human CD20 antigen; experiment: Scatchard analysis on Raji cells, FITC secondary antibody fluorescence (Example 2)
Experimental: The mixture was shaken for one hour at room temperature while shielding against light and primary antibodies binding to cells were detected. After the reaction, the mixture was centrifuged at 3,000 rpm for three minutes and the cells were recovered. The cells were suspended in 200 μl of PBS to remove unreacted FITC-labeled anti murine IgG (H&L) antibody remaining on the cell surface and then centrifuged at 3,000 rpm for three minutes to remove the supernatant. This operation was repeated twice.
After the detection step, the image was digitized using image analysis software Image Quant (Amersham Bioscience) and analyzed using Excel (Microsoft). Background values for the plate, the PBS solution and FITC-labeled secondary antibody displaying non-specific binding to cells were determined. Then a value for the reaction only between the cells and the FITC-labeled secondary antibodies was obtained. Average values for those four points were subtracted from the fluorescent intensity value for each sample in order to obtain the amount of fluorescence of cell-conjugated FITC-labeled secondary antibody. A standard curve was prepared by measuring the amount of fluorescence at various concentrations of control cell-conjugated FITC-labeled secondary antibodies. Thus the amount of cell-conjugated secondary antibody (number of moles or weight) was calculated. The amount of cell-conjugated primary antibody was calculated assuming that each primary antibody and the FITC-labeled secondary antibody react at a ratio of 1:2. Primary antibody in suspension was calculated by subtracting the cell-conjugated amount from the added amount. When calculating the antibody concentration as a molar concentration, the molecular weight of the monoclonal was taken to be 150,000.
Scatchard analysis was used to calculate the antigen number and dissociation constant (Kd value) refer to Scatchard, G.; Ann. N.Y. Acad.

- Kd (human CD20 antigen [1]): 7.21 nM
- Apoptosis (5 ug/ml), DHL4 (human CD20 antigen [2]): 65 relative, m2B8 = 100
- Apoptosis (5 ug/ml), RAJI (human CD20 antigen [2]): 88 relative, m2B8 = 100
- Apoptosis (5 ug/ml), RCK8 (human CD20 antigen [2]): 50 relative, m2B8 = 100
- Apoptosis (5 ug/ml), Wil2-NS (human CD20 antigen [2]): 49 relative, m2B8 = 100
- CDC (10 ug/ml), RAJI (human CD20 antigen [3]): 99 relative, c2B8 = 100
- CDC (10 ug/ml), RC-K8 (human CD20 antigen [3]): 498 relative, c2B8 = 100
- CDC (10 ug/ml), SUDHL4 (human CD20 antigen [3]): 120 relative, c2B8 = 100
- CDC (10 ug/ml), WIL2NS (human CD20 antigen [3]): 172 relative, c2B8 = 100
- Kd (human CD20 antigen [4]): 7.17 nM and 7.25 nM
B1: humanized 1K1791 antibody fv (FraL x VenH) (antibody, V domains shown)
VH: QIQLVQSGPELKKPGASVKISCKASGYTFTNFGVNWVKQAPGKGLKWMGWINTYTGEPSYADDFKGRFAFSLDASVSTAYLQISSLKAEDTSTYFCTRRTNYYGTSYYYAMDYWGQGTTVTVSS
VL: STVMTQSPSFLSASVGDRVTITCKASQSVSNDVAWYQQKPGQSPKVLIYFASNRYTGVPDRFSGSGYGTDFTLTISSLQAEDVAVYFCQQDYSSPLTFGAGTKLEIK
notes: Kappa, gamma 1 construct; also called hz1791 fv; Fv010

- Kd (human CD20 antigen [1]): 8.15 nM
- Apoptosis (5 ug/ml), DHL4 (human CD20 antigen [2]): 96 relative, m2B8 = 100
- Apoptosis (5 ug/ml), RAJI (human CD20 antigen [2]): 84 relative, m2B8 = 100
- Apoptosis (5 ug/ml), RCK8 (human CD20 antigen [2]): 47 relative, m2B8 = 100
- Apoptosis (5 ug/ml), Wil2-NS (human CD20 antigen [2]): 49 relative, m2B8 = 100
- CDC (10 ug/ml), RAJI (human CD20 antigen [3]): 98 relative, c2B8 = 100
- CDC (10 ug/ml), RC-K8 (human CD20 antigen [3]): 530 relative, c2B8 = 100
- CDC (10 ug/ml), SUDHL4 (human CD20 antigen [3]): 121 relative, c2B8 = 100
- CDC (10 ug/ml), WIL2NS (human CD20 antigen [3]): 203 relative, c2B8 = 100
- Kd (human CD20 antigen [4]): 8.5 nM and 7.81 nM
B2: humanized 1K1791 antibody ff (FraL x FraH) (antibody, V domains shown)
VH: B1 VH with P9S, I20V, V76A, T91M, S92A
VL: B1 VL
notes: Kappa, gamma 1 construct; also called hz1791 ff; Ff019

- Kd (human CD20 antigen [1]): 12.7 nM
- Apoptosis (5 ug/ml), DHL4 (human CD20 antigen [2]): 143 relative, m2B8 = 100
- Apoptosis (5 ug/ml), RAJI (human CD20 antigen [2]): 205 relative, m2B8 = 100
- Apoptosis (5 ug/ml), RCK8 (human CD20 antigen [2]): 93 relative, m2B8 = 100
- Apoptosis (5 ug/ml), Wil2-NS (human CD20 antigen [2]): 100 relative, m2B8 = 100
- CDC (10 ug/ml), RAJI (human CD20 antigen [3]): 78 relative, c2B8 = 100
- CDC (10 ug/ml), RC-K8 (human CD20 antigen [3]): 713 relative, c2B8 = 100
- CDC (10 ug/ml), SUDHL4 (human CD20 antigen [3]): 111 relative, c2B8 = 100
- CDC (10 ug/ml), WIL2NS (human CD20 antigen [3]): 295 relative, c2B8 = 100
- Kd (human CD20 antigen [4]): 11.6 nM and 13.8 nM
B3: humanized 1K1791 antibody sf (SdrL x FraH) (antibody, V domains shown)
VH: B1 VH with P9S, I20V, V76A, T91M, S92A
VL: STVMTQSPDSLAVSLGERATINCKSSQSNSNDVAWYQQKPGQSPKVLIYFASNRYSGVPDRFSGSGYGTDFTLTISSLQAEDVAVYFCQQDYSSPLTFGAGTKLEIK
notes: Kappa, gamma 1 construct; also called hz1791 sf; Sf043

- Kd (human CD20 antigen [1]): 23.1 nM
- Apoptosis (5 ug/ml), DHL4 (human CD20 antigen [2]): 133 relative, m2B8 = 100
- Apoptosis (5 ug/ml), RAJI (human CD20 antigen [2]): 202 relative, m2B8 = 100
- Apoptosis (5 ug/ml), RCK8 (human CD20 antigen [2]): 92 relative, m2B8 = 100
- Apoptosis (5 ug/ml), Wil2-NS (human CD20 antigen [2]): 108 relative, m2B8 = 100
- CDC (10 ug/ml), RAJI (human CD20 antigen [3]): 73 relative, c2B8 = 100
- CDC (10 ug/ml), RC-K8 (human CD20 antigen [3]): 108 relative, c2B8 = 100
- CDC (10 ug/ml), SUDHL4 (human CD20 antigen [3]): 61 relative, c2B8 = 100
- CDC (10 ug/ml), WIL2NS (human CD20 antigen [3]): 120 relative, c2B8 = 100
- Kd (human CD20 antigen [4]): 24.4 nM and 21.8 nM
B4: humanized 1K1791 antibody ss (SdrL x SdrH) (antibody, V domains shown)
VH: B1 VH with P9S, I20V, K38R, D62Q, D63G, K65T, S92A
VL: B3 VL
notes: Kappa, gamma 1 construct; also called hz1791 ss; Ss020

- Cell growth inhibiting test on Raji cells, Absorption (492 nm) (human CD20 antigen [5]): 2.6 absorbance 492 nm
- Capacity to Induce Apoptosis (Raji cells) (human CD20 antigen [6]): 30
- Kd (human CD20 antigen [7]): 0.4 nM
B5: 1K1782 murine anti CD20 monoclonal antibody (antibody, V domains shown)
VH: QVQLQQSGAELAKPGASVKMSCKASGYTFTSYWMHWVKQRPGQGLEWIGYITPSTGYTDYNKKFKDKATLTADRSSSTAYMHLSSLTSEDSAVYYCARSGPYFDVWGAGTTVTVSS
VL: DILLTQSPAILFVSPGERVSLSCRASQNIGTSIHWYQQRTNGSPRLLIKYASESFSGIPSRFSGSGSGTDFTLSINSVESEDIADYYCQQSNSWPFTFGSGTKLEIK
notes: also called m1782

- Cell growth inhibiting test on Raji cells, Absorption (492 nm) (human CD20 antigen [5]): 1.79 absorbance 492 nm
- Capacity to Induce Apoptosis (Raji cells) (human CD20 antigen [6]): 160
- Kd (human CD20 antigen [7]): 1.7 nM
B6: 1K1791 murine anti CD20 monoclonal antibody (antibody, V domains shown)
VH: QIQLVQSGPELKKPGETVKISCKASGYTFTNFGVNWVKQAPGKGLKWMGWINTYTGEPSYADDFKGRFAFSLEASANTAYLQINNLKNDDMSTYFCTRRTNYYGTSYYYAMDYWGQGTSVTVSS
VL: STVMTQTPKFLLVSAGDRVTITCKASQSVSNDVAWYQQKPGQSPKVLIYFASNRYTGVPDRFTGSGYGTDFTFTINTVQAEDLAVYFCQQDYSSPLTFGAGTKLELK
notes: also called m1791

- Capacity to Induce Apoptosis (Raji cells) (human CD20 antigen [6]): 30
- Kd (human CD20 antigen [7]): 0.26 nM
B7: 1K1228 murine anti CD20 monoclonal antibody (antibody, mouse IgG1, V domains shown)
VH: QVQLQQPGAELVKPGASVKVSCKASGFTFTSYNLHWVKQTPGQGLVWIGAIYPGNGDTSYNQKFRGKATLTADISSSTAYMQLSSLTSEDSAVYYCARYYYGYDAMDYWGQGTSVTVSS
VL: EIILTQSPTTMAASPGEKITITCSASSSISSYYLRWYQQKPGFSPKVLIYRTSNLASGVPARFSGSGSGTSYSLTIGTMEAEDVATYYCQQGNTVPLTFGSGTKLEIK
notes: also called m1228

— patent US20090203886A1 (OSAKA UNIVERSITY, published 2009)
